Laboratory results reported in IntAct's records for PubMed 17190814.

B1: Antiviral innate immune response receptor RIG-I (Homo sapiens), O95786-1 (parent)
chain: MTTEQRRSLQAFQDYIRKTLDPTYILSYMAPWFREEEVQYIQAEKNNKGPMEAATLFLKFLLELQEEGWFRGFLDALDHAGYSGLYEAIESWDFKKIEKLEEYRLLLKRLQPEFKTRIIPTDIISDLSECLINQECEEILQICSTKGMMAGAEKLVECLLRSDKENWPKTLKLALEKERNKFSELWIVEKGIKDVETEDLEDKMETSDIQIFYQEDPECQNLSENSCPPSEVSDTNLYSPFKPRNYQLELALPAMKGKNTIICAPTGCGKTFVSLLICEHHLKKFPQGQKGKVVFFANQIPVYEQQKSVFSKYFERHGYRVTGISGATAENVPVEQIVENNDIIILTPQILVNNLKKGTIPSLSIFTLMIFDECHNTSKQHPYNMIMFNYLDQKLGGSSGPLPQVIGLTASVGVGDAKNTDEALDYICKLCASLDASVIATVKHNLEELEQVVYKPQKFFRKVESRISDKFKYIIAQLMRDTESLAKRICKDLENLSQIQNREFGTQKYEQWIVTVQKACMVFQMPDKDEESRICKALFLYTSHLRKYNDALIISEHARMKDALDYLKDFFSNVRAAGFDEIEQDLTQRFEEKLQELESVSRDPSNENPKLEDLCFILQEEYHLNPETITILFVKTRALVDALKNWIEGNPKLSFLKPGILTGRGKTNQNTGMTLPAQKCILDAFKASGDHNILIATSVADEGIDIAQCNLVILYEYVGNVIKMIQTRGRGRARGSKCFLLTSNAGVIEKEQINMYKEKMMNDSILRLQTWDEAVFREKILHIQTHEKFIRDSQEKPKPVPDKENKKLLCRKCKALACYTADVRVIEECHYTVLGDAFKECFVSRPHPKPKQFSSFEKRAKIFCARQNCSHDWGIHVKYKTFEIPVIKIESFVVEDIATGVQTLYSKWKDFHFEKIPFDPAEMSK

Variants of: B1
Conditions: with MAVS
For T55I, the “effect of a mutation on the interaction” value was “decreasing interaction strength”.
